{"source": "paper PMC4976356", "about": "“Structural insight into β-Clamp and its interaction with DNA Ligase in Helicobacter pylori” (Scientific Reports, 2016)", "origin": "cited, not measured here", "molecules": {"B1": {"name": "ligase from E. coli: E. coli DNA ligase examined for interaction with Ecβ-clamp (ref 10) (protein, UniProt P15042 1-671, looked up)", "DNA ligase": "MESIEQQLTELRTTLRHHEYLYHVMDAPEIPDAEYDRLMRELRELETKHPELITPDSPTQRVGAAPLAAFSQIRHEVPMLSLDNVFDEESFLAFNKRVQDRLKNNEKVTWCCELKLDGLAVSILYENGVLVSAATRGDGTTGEDITSNVRTIRAIPLKLHGENIPARLEVRGEVFLPQAGFEKINEDARRTGGKVFANPRNAAAGSLRQLDPRITAKRPLTFFCYGVGVLEGGELPDTHLGRLLQFKKWGLPVSDRVTLCESAEEVLAFYHKVEEDRPTLGFDIDGVVIKVNSLAQQEQLGFVARAPRWAVAFKFPAQEQMTFVRDVEFQVGRTGAITPVARLEPVHVAGVLVSNATLHNADEIERLGLRIGDKVVIRRAGDVIPQVVNVVLSERPEDTREVVFPTHCPVCGSDVERVEGEAVARCTGGLICGAQRKESLKHFVSRRAMDVDGMGDKIIDQLVEKEYVHTPADLFKLTAGKLTGLERMGPKSAQNVVNALEKAKETTFARFLYALGIREVGEATAAGLAAYFGTLEALEAASIEELQKVPDVGIVVASHVHNFFAEESNRNVISELLAEGVHWPAPIVINAEEIDSPFAGKTVVLTGSLSQMSRDDAKARLVELGAKVAGSVSKKTDLVIAGEAAGSKLAKAQELGIEVIDEAEMLRLLGS"}}, "system": "Ecβ-clamp", "data": [{"molecule": "B1", "values": [{"measurement": "interaction with E. coli β-clamp (in words)", "result": "interacts with its β-clamp"}]}]}
